Tests used:
Assay in all cases: fluorescence titration; 2-300 mM NaCl; site size 32 ± 2 nt; EMSA: 20 mM Tris-HCl pH 8.0, 100 mM NaCl, 1 mM EDTA, 25 C, 2% agarose in TAE; fluorescence titration: 20 mM Tris-HCl pH 8.0, 1 mM EDTA, 2/100/300 mM NaCl, 25 C
Details in all cases: protein: recombinant; tags: none (stop codon in reverse primer); chain copies: 4; label: none stated
PprSSB = molecular target: T1, PprSSB (Photobacterium profundum (LMG 19446), UniProt Q6LM83 5-187)
T1 sequence: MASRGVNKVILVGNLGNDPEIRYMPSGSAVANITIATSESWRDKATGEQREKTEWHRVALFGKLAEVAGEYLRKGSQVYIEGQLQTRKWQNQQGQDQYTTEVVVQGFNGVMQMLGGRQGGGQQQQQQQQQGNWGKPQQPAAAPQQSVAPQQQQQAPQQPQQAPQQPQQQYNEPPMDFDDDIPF

PcrSSB = molecular target: T2, PcrSSB (Psychrobacter cryohalolentis K5 (DSM …, UniProt Q1Q9B8 1-1+=G+2-219, internal_change))
T2 sequence: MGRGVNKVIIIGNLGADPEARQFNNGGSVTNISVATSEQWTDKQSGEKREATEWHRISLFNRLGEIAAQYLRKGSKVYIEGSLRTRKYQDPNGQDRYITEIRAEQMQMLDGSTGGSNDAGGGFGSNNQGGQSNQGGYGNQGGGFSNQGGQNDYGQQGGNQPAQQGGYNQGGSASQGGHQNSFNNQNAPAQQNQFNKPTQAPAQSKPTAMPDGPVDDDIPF

PtoSSB = molecular target: T3, PtoSSB (Psychroflexus torquis ATCC 700755 (LMG …, UniProt K4IS14 1-151))
T3 sequence: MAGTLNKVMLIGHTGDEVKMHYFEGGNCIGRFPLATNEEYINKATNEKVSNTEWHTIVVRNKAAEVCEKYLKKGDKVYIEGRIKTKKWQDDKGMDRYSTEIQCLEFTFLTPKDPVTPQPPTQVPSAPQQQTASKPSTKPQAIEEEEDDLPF

B1: (dT)76 (ssDNA)
DNA: TTTTTTTTTTTTTTTTTTTTTTTTTTTTTTTTTTTTTTTTTTTTTTTTTTTTTTTTTTTTTTTTTTTTTTTTTTTT
PprSSB
  binding signal: 90 ± 3 % Trp fluorescence quench at saturation
PcrSSB
  binding signal: 93 ± 3 % Trp fluorescence quench at saturation
PtoSSB
  binding signal: 93 ± 3 % Trp fluorescence quench at saturation

Source: publication PMC3991886, “Characterization of single-stranded DNA-binding proteins from the psychrophilic bacteria Desulfotalea psychrophila, Flavobacterium psychrophilum, Psychrobacter arcticus, Psychrobacter cryohalolentis, Psychromonas ingrahamii, Psychroflexus torquis, and Photobacterium profundum” (BMC Microbiology, 2014)
